Source: US20220380463A1 (Adimab, published 2022)

Legend:
[1] = target: T1, human CD3 on CD3+ Jurkat cells (human, UniProt P07766 23-207); assay: flow cytometry on CD3+ Jurkat cells, ratio of MFI at pH 6.0 to pH 7.4
T1 construct: whole, on cells; Native CD3 complex on cells; the other CD3 chains are not specified for this assay; also called Human CD3+ Jurkat
Summary of the method: (§1)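 Jurkat cells incubated 20 min on ice with 100 nM yeast-produced IgG in PBS + 0.1% BSA at pH 6.0 or pH 7.4, with all washes and staining at the same pH. Bound antibody detected with anti-human IgG-RPE, dead cells excluded by propidium iodide; MFI measured by flow cytometry.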

[2] = target: T1, human CD3 on CD3+ Jurkat cells; assay: flow cytometry, 100 nM IgG on CD3+ Jurkat cells, pH 6.0
Summary of the method: as §1

[3] = target: T1, human CD3 on CD3+ Jurkat cells; assay: flow cytometry, 100 nM IgG on CD3+ Jurkat cells, pH 7.4
Summary of the method: as §1

T1 sequence (P07766 23-207): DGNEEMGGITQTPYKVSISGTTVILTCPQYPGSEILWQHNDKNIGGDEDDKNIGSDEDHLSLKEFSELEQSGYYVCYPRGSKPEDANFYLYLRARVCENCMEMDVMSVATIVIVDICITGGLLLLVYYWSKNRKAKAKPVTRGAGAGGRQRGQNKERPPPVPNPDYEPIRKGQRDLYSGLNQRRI

| Binder | MFI pH 6.0/MFI pH 7.4 [1] | MFI pH 6.0 [2] [MFI] | MFI pH 7.4 [3] [MFI] |
| --- | --- | --- | --- |
| SAD10318_P03_E08 (ADI-48605) (antibody, V domains shown, IgG; also called Ab199) VH: QVQLVQSGAEVKKPGASVKVSCKASGFNIKDYYMHWVRQAPGQRLEWMGWIDLENANTIYDAKFQGRVTITRDTSASTAYMELSSLRSEDTAVYYCARDHYHRYFYDVWGQGTLVTVSS VL: DIVMTQSPDSLAVSLGERATINCKSSQSLLNAHTGKNHLAWYQQKPGQPPKLLIYWASTRESGVPDRFSGSGSGTDFTLTISSLQAEDVAVYYCKQSYHRRHFGGGTKVEIK | 5.2 | 282 | 55 |
| SAD10320_P01_F03 (ADI-48647) (antibody, V domains shown, IgG; also called Ab65) VH: QVQLVQSGAEVKKPGASVKVSCKASGFNIKDYYMHWVRQAPGQRLEWMGWIDLENANTIYDAKFQGRVTITRDTSASTAYMELSSLRSEDTAVYYCARDAYPHYFYDVWGQGTLVTVSS VL: DIVMTQSPDSLAVSLGERATINCKSSQSLLNARTGKNYLAWYQQKPGQPPKLLIYWASTRESGVPDRFSGSGSGTDFTLTISSLQAEDVAVYYCKQSYLHRTFGGGTKVEIK | 30.9 | 4340 | 141 |
| SAD10320_P01_B01 (ADI-48643) (antibody, V domains shown, IgG; also called Ab46) VH: QVQLVQSGAEVKKPGASVKVSCKASGFNIKDYYMHWVRQAPGQRLEWMGWIDLENANTIYDAKFQGRVTITRDTSASTAYMELSSLRSEDTAVYYCARDAYGHIFYDVWGQGTLVTVSS VL: DIVMTQSPDSLAVSLGERATINCKSSQSLLNARTGKNYLAWYQQKPGQPPKLLIYWASTRESGVPDRFSGSGSGTDFTLTISSLQAEDVAVYYCKQSYVHRTFGGGTKVEIK | 15.9 | 4200 | 265 |
| SAD10320_P01_D01 (ADI-48644) (antibody, V domains shown, IgG; also called Ab48) VH: QVQLVQSGAEVKKPGASVKVSCKASGFNIKDYYMHWVRQAPGQRLEWMGWIDLENANTIYDAKFQGRVTITRDTSASTAYMELSSLRSEDTAVYYCARDAYGHGFYDVWGQGTLVTVSS VL: DIVMTQSPDSLAVSLGERATINCKSSQSLLNARTGKNYLAWYQQKPGQPPKLLIYWASTRESGVPDRFSGSGSGTDFTLTISSLQAEDVAVYYCKQSYSHRTFGGGTKVEIK | 6.9 | 860 | 124 |
| SAD10319_P01_D01 (ADI-48622) (antibody, V domains shown, IgG; also called Ab231) VH: QVQLVQSGAEVKKPGASVKVSCKASGYTFKSYDMHWVRQAPGQRLEWMGWIDAGTGNTKYSQKFQGRVTITRDTSASTAYMELSSLRSEDTAVYYCARDAYGRYFYDVWGQGTLVTVSS VL: DIVMTQSPDSLAVSLGERATINCKSSQSLLNARTGKNYLAWYQQKPGQPPKLLIYWASTRESGVPDRFSGSGSGTDFTLTISSLQAEDVAVYYCKQSYSRRTFGGGTKVEIK | 5.4 | 3060 | 567 |
| SAD10318_P04_C11 (ADI-48615) (antibody, V domains shown, IgG; also called Ab218) VH: QVQLVQSGAEVKKPGASVKVSCKASGFNIKDYYMHWVRQAPGQRLEWMGWIDLENANTIYDAKFQGRVTITRDTSASTAYMELSSLRSEDTAVYYCARDHHGRYFYDVWGQGTLVTVSS VL: DIVMTQSPDSLAVSLGERATINCKSSQSLLNARTGHNHLAWYQQKPGQPPKLLIYWASTRESGVPDRFSGSGSGTDFTLTISSLQAEDVAVYYCKQSYSRRTFGGGTKVEIK | 1.1 | 40 | 37 |
| SAD10318_P03_F07 (ADI-48602) (antibody, V domains shown, IgG; also called Ab192) VH: QVQLVQSGAEVKKPGASVKVSCKASGFNIKDYYMHWVRQAPGQRLEWMGWIDLENANTIYDAKFQGRVTITRDTSASTAYMELSSLRSEDTAVYYCARDAHGRYHYDVWGQGTLVTVSS VL: DIVMTQSPDCLAVSLGERATINCKSSQSLLNARTGHNYLAWYQQKPGQPPKLLIYWASTRESGVPDRFSGSGSGTDFTLTISSLQAEDVAVYYCKQSHSHRTFGGGTKVEIK | 5.9 | 202 | 34 |
| SAD10318_P04_A12 (ADI-48618) (antibody, V domains shown, IgG; also called Ab224) VH: QVQLVQSGAEVKKPGASVKVSCKASGFNIKDYYMHWVRQAPGQRLEWMGWIDLENANTIYDAKFQGRVTITRDTSASTAYMELSSLRSEDTAVYYCARDAYHRHFYDVWGQGTLVTVSS VL: DIVMTQSPDSLAVSLGERATINCKSSQSLLHPRTGKNYLAWYQQKPGQPPKLLIYWASTRESGVPDRFSGSGSGTDFTLTISSLQAEDVAVYYCKQSYHHRTFGGGTKVEIK | 4.2 | 170 | 41 |
| SAD10318_P04_D10 (ADI-48613) (antibody, V domains shown, IgG; also called Ab211) VH: QVQLVQSGAEVKKPGASVKVSCKASGFNIKDYYMHWVRQAPGQRLEWMGWIDLENANTIYDAKFQGRVTITRDTSASTAYMELSSLRSEDTAVYYCARDAYGHYHYDVWGQGTLVTVSS VL: DIVMTQSPDSLAVSLGERATINCKSSQSLLHARTGKNHLAWYQQKPGQPPKLLIYWASTRESGVPDRFSGSGSGTDFTLTISSLQAEDVAVYYCKQSYSRRTFGGGTKVEIK | 0.8 | 52 | 66 |
| SAD10318_P03_H08 (ADI-48607) (antibody, V domains shown, IgG; also called Ab202) VH: QVQLVQSGAEVKKPGASVKVSCKASGFNIKDYYMHWVRQAPGQRLEWMGWIDLENANTIYDAKFQGRVTITRDTSASTAYMELSSLRSEDTAVYYCARDAYHHYFYDVWGQGTLVTVSS VL: DIVMTQSPDSLAVSLGERATINCKSSQSLLNARTGHNHLAWYQQKPGQPPKLLIYWASTRESGVPDRFSGSGSGTDFTLTISSLQAEDVAVYYCHQSHSRRTFGGGTKVEIK | 1.7 | 86 | 52 |
| SAD10318_P04_B11 (ADI-48614) (antibody, V domains shown, IgG; also called Ab217) VH: QVQLVQSGAEVKKPGASVKVSCKASGFNIKDYYMHWVRQAPGQRLEWMGWIDLENANTIYDAKFQGRVTITRDTSASTAYMELSSLRSEDTAVYYCARDHYHRYFYDVWGQGTLVTVSS VL: DIVMTQSPDSLAVSLGERATINCKSSQSLLNAHTGKNHLAWYQQKPGQPPKLLIYWASTRESGVPDRFSGSGSGTDFTLTISSLQAEDVAVYYCKQSYSRRTFGGGTKVEIK | 2.6 | 148 | 58 |
| SAD10318_P04_D11 (ADI-48616) (antibody, V domains shown, IgG; also called Ab219) VH: QVQLVQSGAEVKKPGASVKVSCKASGFNIKDYYMHWVRQAPGQRLEWMGWIDLENANTIYDAKFQGRVTITRDTSASTAYMELSSLRSEDTAVYYCARDAYGHYFYDVWGQGTLVTVSS VL: DIVMTQSPDSLAVSLGERATINCKSSQSLLNARTGHNHLAWYQQKPGQPPKLLIYWASTRESGVPDRFSGSGSGTDFTLTISSLQAEDVAVYYCHQSYSHRTFGGGTKVEIK | 0.9 | 36 | 41 |
| SAD10318_P04_C10 (ADI-48612) (antibody, V domains shown, IgG; also called Ab210) VH: QVQLVQSGAEVKKPGASVKVSCKASGFNIKDYYMHWVRQAPGQRLEWMGWIDLENANTIYDAKFQGRVTITRDTSASTAYMELSSLRSEDTAVYYCARDAYGRYHHDVWGQGTLVTVSS VL: DIVMTQSPDSLAVSLGERATINCKSSQSLLNARTGHNHLAWYQQKPGQPPKLLIYWASTRESGVPDRFSGSGSGTDFTLTISSLQAEDVAVYYCHQSYHRRTFGGGTKVEIK | 0.8 | 42 | 50 |
| SAD10320_P02_B06 (ADI-48653) (antibody, V domains shown, IgG; also called Ab83) VH: QVQLVQSGAEVKKPGASVKVSCKASGFNIKDYYMHWVRQAPGQRLEWMGWIDLENANTIYDAKFQGRVTITRDTSASTAYMELSSLRSEDTAVYYCARDAYGHWFYDVWGQGTLVTVSS VL: DIVMTQSPDSLAVSLGERATINCKSSQSLLNARTGKNYLAWYQQKPGQPPKLLIYWASTRESGVPDRFSGSGSGTDFTLTISSLQAEDVAVYYCKQSYHHRTFGGGTKVEIK | 3 | 3110 | 1030 |
| SAD10318_P03_F08 (ADI-48606) (antibody, V domains shown, IgG; also called Ab200) VH: QVQLVQSGAEVKKPGASVKVSCKASGFNIKDYYMHWVRQAPGQRLEWMGWIDLENANTIYDAKFQGRVTITRDTSASTAYMELSSLRSEDTAVYYCARDHYHRYFYDVWGQGTLVTVSS VL: DIVMTQSPDSLAVSLGERATINCKSSQSLLNAHTGKNHLAWYQQKPGQPPKLLIYWASTRESGVPDRFSGSGSGTDFTLTISSLQAEDVAVYYCKQSYSRRHFGGGTKVEIK | 1.2 | 89 | 76 |
| SAD10320_P01_A02 (ADI-48646) (antibody, V domains shown, IgG; also called Ab53) VH: QVQLVQSGAEVKKPGASVKVSCKASGFNIKDYYMHWVRQAPGQRLEWMGWIDLENANTIYDAKFQGRVTITRDTSASTAYMELSSLRSEDTAVYYCARDAYPHYFYDVWGQGTLVTVSS VL: DIVMTQSPDSLAVSLGERATINCKSSQSLLNARTGKNYLAWYQQKPGQPPKLLIYWASTRESGVPDRFSGSGSGTDFTLTISSLQAEDVAVYYCKQSYHERTFGGGTKVEIK | 24.1 | 1270 | 53 |
| SAD10318_P04_H11 (ADI-48617) (antibody, V domains shown, IgG; also called Ab223) VH: QVQLVQSGAEVKKPGASVKVSCKASGFNIKDYYMHWVRQAPGQRLEWMGWIDLENANTIYDAKFQGRVTITRDTSASTAYMELSSLRSEDTAVYYCARDHYGRYFYDHWGQGTLVTVSS VL: DIVMTQYPDSLAVSLGERATINCKSSQSLLNAHTGHNYLAWYQQKPGQPPKLLIYWASTRESGVPDRFSGSGSGTDFTLTISSLQAEDVAVYYCHQSYSHRTFGGGTKVEIK | 3.1 | 166 | 53 |
| SAD10320_P01_E01 (ADI-48645) (antibody, V domains shown, IgG; also called Ab49) VH: QVQLVQSGAEVKKPGASVKVSCKASGFNIKDYYMHWVRQAPGQRLEWMGWIDLENANTIYDAKFQGRVTITRDTSASTAYMELSSLRSEDTAVYYCARDAYGHVFYDVWGQGTLVTVSS VL: DIVMTQSPDSLAVSLGERATINCKSSQSLLNARTGKNYLAWYQQKPGQPPKLLIYWASTRESGVPDRFSGSGSGTDFTLTISSLQAEDVAVYYCKQSYKHRTFGGGTKVEIK | 11.1 | 450 | 41 |
